Test results taken from US20250011430A1.

T1: B7H3 on cells (B7H3 on HEK293 cells; B7H3 expressed from plasmid on HEK-293T and QT6 cells) (human) (UniProt Q5ZPR3)
T1 sequence (looked up): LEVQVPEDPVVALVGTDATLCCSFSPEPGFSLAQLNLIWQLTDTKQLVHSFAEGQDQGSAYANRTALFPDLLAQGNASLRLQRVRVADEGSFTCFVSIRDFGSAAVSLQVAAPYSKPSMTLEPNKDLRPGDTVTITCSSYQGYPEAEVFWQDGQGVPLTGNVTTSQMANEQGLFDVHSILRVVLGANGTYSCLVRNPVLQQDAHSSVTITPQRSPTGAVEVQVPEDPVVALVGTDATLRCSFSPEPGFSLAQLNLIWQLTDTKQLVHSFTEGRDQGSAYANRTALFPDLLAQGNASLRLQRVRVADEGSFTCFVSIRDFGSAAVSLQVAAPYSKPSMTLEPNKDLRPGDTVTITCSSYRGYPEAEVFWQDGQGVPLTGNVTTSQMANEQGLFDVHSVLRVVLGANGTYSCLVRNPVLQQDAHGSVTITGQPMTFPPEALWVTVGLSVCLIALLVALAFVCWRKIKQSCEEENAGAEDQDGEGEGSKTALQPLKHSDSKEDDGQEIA


How the values were obtained:
[1] = target: T1, B7H3 on cells (B7H3 on HEK293 cells; B7H3 expressed from plasmid on HEK-293T and QT6 cells) (human); assay: flow cytometry on HEK293 cells
[2] = target: human B7H3 ECD-His (human) (UniProt Q5ZPR3); assay: ForteBio BLI
[3] = target: human B7H3 ECD-His (human) (UniProt Q5ZPR3); assay: ForteBio BLI, antibody on AHQ sensor, 60 nM antigen, 1:1 model

Row | Kd [2] | Kd [3] | Binder | EC50 [1]
1 | 277 pM | 346 pM | huM30 (antibody, from another filing, V domains shown) VH: QVQLVQSGAEVKKPGSSVKVSCKASGYTFTNYVMHWVRQAPGQGLEWMGYINPYNDDVKYNEKFKGRVTITADESTSTAYMELSSLRSEDTAVYYCARWGYYGSPLYYFDYWGQGTLVTVSS VL: EIVLTQSPATLSLSPGERATLSCRASSRLIYMHWYQQKPGQAPRPLIYATSNLASGIPARFSGSGSGTDFTLTISSLEPEDFAVYYCQQWNSNPPTFGQGTKVEIK | 0.0974 µg/mL
2 | – | 435 pM | anti-B7H3 antibody 26B6 (antibody, V domains shown) VH: EVQLQQSGPELVKPGASVKISCKTSGYAFTEYTMHWVKQSQGKSLEWIGGINPNTGGTTYNQKFNGKATLTVDRSSSTAYMELRSLTSEDSAVYYCTRPYRDDGGFHWYFDVWGAGTAVTVSS VL: QIVLTQSPAVMSTSPGEKVTMTCSASSSVSYMQWYQQKSGTSPKRWIYDTSKLTSGVPARFSGSGSGTSYSLTISSMEAEDAATYYCQQWSSNPLTFGAGTKLELKR | –
3 | 37000 pM | – | humanized 6F7 with light chain variable region LV1 (antibody, V domains shown) VH: EVQLVESGGGLVQPGGSLRLSCAASGFTFTDYYMSWVRQAPGKGLEWVAFIRNKANGYTTEYSASVKGRFTISRDDSKNSLYLQMNSLRAEDTAVYYCARDSHYRPFAYWGQGTLVTVSS VL: DIVMTQSPLSLPVTPGEPASISCKSSQSLLNSGNQNNYLTWYLQKPGQSPQLLIYLASTRDSGVPDRFSGSGSGTDFTLKISRVEAEDVGVYYCQNDYTYPLTFGGGTKVEIKR | –
4 | 14200 pM | – | humanized 6F7 with light chain variable region LV2 (antibody, V domains shown) VH: EVQLVESGGGLVQPGGSLRLSCAASGFTFTDYYMSWVRQAPGKGLEWVAFIRNKANGYTTEYSASVKGRFTISRDDSKNSLYLQMNSLRAEDTAVYYCARDSHYRPFAYWGQGTLVTVSS VL: DIVMTQSPDSLAVSLGERATINCKSSQSLLNSGNQNNYLTWYQQKPGQPPKLLIYLASTRDSGVPDRFSGSGSGTDFTLTISSLQAEDVAVYYCQNDYTYPLTFGGGTKVEIKR | –
5 | – | 323 pM | anti-B7H3 antibody 2B8 (antibody, V domains shown) VH: QVQLQQSGPELVRPGVSVKISCKVSGYTFTDGAMHWVKRSHAKSLEWIGIINTNSGNTNYNQKFQGKATMTVDKSSSTAYMELARLTSEDSAIYYCARGVFYYGYGAWFAYWGQGTLVTVSA VL: DVQITQSPSYLTASPGETIIINCRASKTISNYLAWYQEKPGKTNKLLIYSGSTLQSGIPSRFSGSGSDTDFTLTISSLEPEDFAMYYCQQHHEYPLTFGAGTKLELKR | –
6 | 753 pM | – | humanized 26B6 (antibody, V domains shown) VH: EVQLVQSGAEVKKPGASVKVSCKASGYTFTEYTMHWVRQAPGQGLEWIGGINPNTGGTTYNQKFNGRVTMTRDTSISTAYMELSSLRSEDTAVYYCTRPYRDDGGFHWYFDVWGQGTLVTVSS VL: EIVLTQSPATLSLSPGERATLSCSASSSVSYMQWYQQKPGLAPRLLIYDTSKLTSGIPDRFSGSGSGTDFTLTISRLEPEDFAVYYCQQWSSNPLTFGGGTKVEIKR | –
7 | – | 685 pM | anti-B7H3 antibody 23H1 (antibody, V domains shown) VH: EVKLVESGGGLVQPGGSLRLSCATSGFTFTDYYMSWVRQPPGKALEWLGFIRNKVNDYTTEYSVSVKGRFTISRDNSQTILYLQMNTLRAEDSATYYCARDSPYRPFAYWGQGTLVTVSA VL: DIVMTQSPSSLTVTAGENVTMSCKSSQTLLNNGNQKNFLTWYQQKPGQPPKLLIYLASTRESGVPDRFTGSGSGTDFTLTISSVQAEDLAVYYCQNDYTYPLTFGAGTKLELKR | –
8 | – | 537 pM | anti-B7H3 antibody 6F7 (antibody, V domains shown) VH: EVKLVESGGGLVQPGGSLRLSCATSGFTFTDYYMSWVRQPPGKALEWLGFIRNKANGYTTEYSASVKGRFTISSDDSQSILYLQMNTLRAEDSATYYCARDSHYRPFAYWGQGTLVTVSA VL: DIQMTQSPSSLTVTAGEKVTMSCKSSQSLLNSGNQNNYLTWYQQKPGQPPKLLIYLASTRDSGVPDRFTGSGSGTDFTLTISSVQAEDLAVYYCQNDYTYPLTFGAGTKLELKR | –
